For assay [1], the target named is I-A^d on NSO parental cells (untransfected negative control, H-2^d background) (mouse) (UniProt P04228). The assay can be described thus: flow cytometry, FITC-conjugated isotype control antibody 1:100 on untransfected NSO cells (negative control).
In assay [2] the target is murine class II MHC molecule I-A^d on A20.1-11 cells (mouse) (UniProt P04228). The assay can be described thus: flow cytometry, FITC-conjugated isotype control antibody 1:100 on A20.1-11 cells (positive control). Background: In flow cytometry, cells or beads pass a laser one at a time.
Assay [3] deals with full-length murine I-A^d/OVA 323-339 MHC class II fusion complex (pJRS165.1) expressed on NSO cells (mouse; chicken) (UniProt P04228). The assay can be described thus: flow cytometry, FITC-conjugated isotype control antibody 1:100 on clone NSO/IA^d/OVA.B5.
The target is the same in assay [4]. As to the kind of experiment: flow cytometry, FITC-conjugated isotype control antibody 1:100 on clone NSO/IA^d/OVA.B4.
The target is the same in assay [5]. As to the kind of experiment: flow cytometry, FITC-conjugated isotype control antibody 1:100 on clone NSO/IA^d/OVA.B2.
Assay [6] shares this target. As to the kind of experiment: flow cytometry, FITC-conjugated isotype control antibody 1:100 on clone NSO/IA^d/OVA.A4.
For assay [7], the target named is soluble single-chain I-A^d-OVA from insect cells (SSC1 gene in pMBSC1.2, SF9 cells) (mouse (I-A^d); chicken (OVA peptide)). As to the kind of experiment: sandwich ELISA, M5/114 capture and biotinylated AMS-32.1 detection; cotransfection mix supernatant, undiluted. For orientation: An ELISA detects its analyte on a solid surface through an enzyme-linked reagent.
The target of assay [8] is soluble single-chain I-A^d-OVA with EE antibody tag (SCE1 construct) secreted by transfected NSO cells (mouse (I-A^d); chicken (OVA peptide)). The assay can be described thus: sandwich ELISA of Example 18, M5/114 capture and biotinylated AMS-32.1 detection; undiluted culture supernatant of E10 (SCE1 transfectant).
The target in assay [9] is soluble single-chain I-A^d-OVA from insect cells (SSC1 gene in pMBSC1.2, SF9 cells) (mouse (I-A^d); chicken (OVA peptide)). The assay can be described thus: sandwich ELISA of Example 18, M5/114 capture and biotinylated AMS-32.1 detection; sc I-A^d-OVA from insect cell culture (positive control).
Assay [10] shares this target. As to the kind of experiment: sandwich ELISA, M5/114 capture and biotinylated AMS-32.1 detection; cotransfection mix supernatant, diluted 1:2.
Assay [11] shares this target. As to the kind of experiment: sandwich ELISA, M5/114 capture and biotinylated AMS-32.1 detection; cotransfection mix supernatant, diluted 1:4.
The target is the same in assay [12]. As to the kind of experiment: sandwich ELISA, M5/114 capture and biotinylated AMS-32.1 detection; supernatant of virus clone C6.
Assay [13] has the same target. The assay can be described thus: sandwich ELISA, M5/114 capture and biotinylated AMS-32.1 detection; cotransfection mix supernatant, diluted 1:8.
Assay [14] concerns the target soluble single-chain I-A^d-OVA with EE antibody tag (SCE1 construct) secreted by transfected NSO cells (mouse (I-A^d); chicken (OVA peptide)). The assay can be described thus: sandwich ELISA of Example 18, M5/114 capture and biotinylated AMS-32.1 detection; undiluted culture supernatant of E11 (SCE1 transfectant).
The target in assay [15] is soluble single-chain I-A^d-OVA from insect cells (SSC1 gene in pMBSC1.2, SF9 cells) (mouse (I-A^d); chicken (OVA peptide)). The assay can be described thus: sandwich ELISA, M5/114 capture and biotinylated AMS-32.1 detection; supernatant of virus clone F8.
Assay [16] addresses Neuron Specific Enolase (NSE), supernatant of SF9 cells infected with recombinant Baculovirus. The assay can be described thus: sandwich ELISA, M5/114 capture and biotinylated AMS-32.1 detection; supernatant of SF9 cells infected with NSE Baculovirus (negative control).

“FITC-conjugated anti-IA^k antibody (Pharmingen), isotype matched irrelevant antibody”: the peak channel fluorescence in assay [1] was 5 channel; in assay [2] it was 5 channel; in assay [3], 10 channel; in [4], 11 channel; in assay [5] it was 14 channel; in [6], 34 channel.
Take “M5/114 (ATCC TIB 120) anti-IA^d (antibody)”: the Absorbance (405 nm) in assay [7] is 0.857 absorbance; in assay [8], 0.781 absorbance; in [9] it was 2.44 absorbance; in [10], 0.524 absorbance; in assay [11], 0.305 absorbance; in assay [12] it was 1.56 absorbance. Besides, the Absorbance (405 nm) in assay [13] was 0.165 absorbance; in assay [14] it was 0.96 absorbance; in [15], 1.45 absorbance; in assay [16] it was 0.098 absorbance.

The record behind these values is patent US7074904.
